Source: patent US20240132578A1

How the values were obtained:
Assay in all cases: cell-based or functional assay
[1] = biological target: HIV-1 Env of isolate MGRM-A-003 (pseudovirus) (HIV-1)
[2] = biological target: HIV-1 Env of isolate MGRM-A-013 (subtype A) (HIV-1)
[3] = biological target: HIV-1 Env of isolate MGRM-AE-008 (subtype AE) (HIV-1)
[4] = biological target: HIV-1 Env of isolate MGRM-AG-003 (subtype AG) (HIV-1)
[5] = biological target: HIV-1 Env of isolate MGRM-AG-013 (subtype AG) (HIV-1)
[6] = biological target: HIV-1 Env of isolate MGRM-D-013 (pseudovirus) (HIV-1)
[7] = biological target: HIV-1 Env of isolate MGRM-F1-006 (HIV-1)
[8] = biological target: HIV-1 Env of isolate MGRM-F1-013 (HIV-1)
[9] = biological target: HIV-1 Env of pseudovirus isolate MGRM-C-012 (clade C) (HIV-1)
[10] = biological target: HIV-1 Env of pseudovirus isolate MGRM-C-015 (clade C) (HIV-1)
[11] = biological target: HIV-1 Env of pseudovirus isolate MGRM-C-020 (clade C) (HIV-1)
[12] = biological target: HIV-1 JR-CSF Env I424A (HIV-1 (isolate JR-CSF)) (UniProt P20871)
[13] = biological target: HIV-1 Env of pseudovirus MGRM-D-019 (HIV-1)
[14] = biological target: HIV-1 Env of pseudovirus MGRM-D-020 (HIV-1)
[15] = biological target: HIV-1 Env of pseudovirus MGRM-F1-006 (HIV-1)
[16] = biological target: HIV-1 envelope glycoprotein (Env) of isolate MG RM-AG-009 (HIV-1)
[17] = biological target: HIV-1 Env of isolate MGRM-AE-008 (pseudovirus) (HIV-1)
[18] = biological target: HIV-1 Env of isolate MGRM-AG-001 (pseudovirus) (HIV-1)
[19] = biological target: HIV-1 Env of isolate 92UG046 (HIV-1)
[20] = biological target: HIV-1 Env of isolate MGRM-C-014 (subtype C), on pseudovirus (HIV-1)
[21] = biological target: HIV-1 Env of isolate MGRM-C-022 (subtype C), on pseudovirus (HIV-1)
[22] = biological target: HIV-1 Env of isolate MGRM-C-023 (subtype C), on pseudovirus (HIV-1)
[23] = biological target: HIV-1 Env of isolate MGRM-C-027 (subtype C), on pseudovirus (HIV-1)
[24] = biological target: HIV-1 Env of isolate MGRM-D-002 (HIV-1)

Chain of PGT-144 (4970_K22) (antibody) (VH): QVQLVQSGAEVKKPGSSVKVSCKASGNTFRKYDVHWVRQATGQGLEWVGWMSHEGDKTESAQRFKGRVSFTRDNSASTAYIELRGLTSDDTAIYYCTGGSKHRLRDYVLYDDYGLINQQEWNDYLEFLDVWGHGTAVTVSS
Chain of PGT-144 (4970_K22) (antibody) (VL): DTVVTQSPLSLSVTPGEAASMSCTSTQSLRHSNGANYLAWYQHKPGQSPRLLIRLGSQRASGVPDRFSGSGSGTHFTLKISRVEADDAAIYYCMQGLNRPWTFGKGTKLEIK
Chain of PGT-145 (4995_P16) (antibody) (VH): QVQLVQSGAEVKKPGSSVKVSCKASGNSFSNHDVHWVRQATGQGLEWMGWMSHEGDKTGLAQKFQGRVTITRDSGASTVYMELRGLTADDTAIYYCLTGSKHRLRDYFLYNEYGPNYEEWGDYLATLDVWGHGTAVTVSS
Chain of PGT-145 (4995_P16) (antibody) (VL): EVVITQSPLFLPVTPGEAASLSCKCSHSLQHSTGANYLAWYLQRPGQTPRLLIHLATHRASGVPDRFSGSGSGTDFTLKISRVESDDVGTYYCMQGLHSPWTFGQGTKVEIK
Chain of PGT-142 (4995_E20) (antibody) (VH): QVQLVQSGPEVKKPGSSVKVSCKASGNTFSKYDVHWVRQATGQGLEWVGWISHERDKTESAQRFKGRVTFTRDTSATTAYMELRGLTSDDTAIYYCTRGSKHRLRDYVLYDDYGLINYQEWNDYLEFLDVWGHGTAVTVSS
Chain of PGT-142 (4995_E20) (antibody) (VL): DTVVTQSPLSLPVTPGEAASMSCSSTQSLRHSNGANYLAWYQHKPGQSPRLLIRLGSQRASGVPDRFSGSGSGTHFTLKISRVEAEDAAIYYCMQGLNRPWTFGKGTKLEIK
Chain of PGT-143 (4980_N08) (antibody) (VH): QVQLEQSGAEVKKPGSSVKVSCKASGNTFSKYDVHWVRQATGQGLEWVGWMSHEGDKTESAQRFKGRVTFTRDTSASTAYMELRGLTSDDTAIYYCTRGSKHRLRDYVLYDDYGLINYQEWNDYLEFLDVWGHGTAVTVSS
Chain of PGT-143 (4980_N08) (antibody) (VL): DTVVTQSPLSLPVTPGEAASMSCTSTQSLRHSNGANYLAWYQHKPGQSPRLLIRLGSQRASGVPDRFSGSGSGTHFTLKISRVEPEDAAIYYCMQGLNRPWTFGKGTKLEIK
Chain of PGT-141 (4964_G22; 4993_K13) (antibody) (VH): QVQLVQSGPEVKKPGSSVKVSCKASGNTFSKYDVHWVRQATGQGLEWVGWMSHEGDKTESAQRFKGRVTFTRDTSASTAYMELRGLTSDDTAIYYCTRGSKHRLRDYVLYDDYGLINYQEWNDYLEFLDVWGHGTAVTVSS

Q: For 5329_C19 (PGT-136) (antibody), which IC50 (µg/mL), pseudovirus neutralization [1] is on record?
A: The IC50 (µg/mL), pseudovirus neutralization was over 50 µg/mL.

Q: And the IC50, pseudovirus neutralization [2]?
A: The IC50, pseudovirus neutralization was over 50 µg/mL.

Q: And the IC50, pseudovirus neutralization [3]?
A: The IC50, pseudovirus neutralization was over 50 µg/mL.

Q: What about the IC50, pseudovirus neutralization [4] of the same substance?
A: The IC50, pseudovirus neutralization was over 50 µg/mL.

Q: And the IC50, pseudovirus neutralization [5]?
A: The IC50, pseudovirus neutralization was over 50 µg/mL.

Q: And the IC50 (µg/mL), pseudovirus neutralization [6]?
A: The IC50 (µg/mL), pseudovirus neutralization was over 50 µg/mL.

Q: What about the IC50 (µg/mL), pseudovirus neutralization [7] of the same substance?
A: The IC50 (µg/mL), pseudovirus neutralization was over 50 µg/mL.

Q: What about the IC50 (µg/mL), pseudovirus neutralization [8] of the same substance?
A: Its IC50 (µg/mL), pseudovirus neutralization is over 50 µg/mL.

Q: What about the IC50, pseudovirus neutralization [9] of the same substance?
A: The IC50, pseudovirus neutralization was over 50 µg/mL.

Q: And the IC50, pseudovirus neutralization [10]?
A: Its IC50, pseudovirus neutralization is 11.1 µg/mL.

Q: What about the IC50, pseudovirus neutralization [11] of the same substance?
A: Its IC50, pseudovirus neutralization is over 50 µg/mL.

Q: Which IC50 (µg/mL), pseudovirus neutralization [1] does the source give for 5343_B08 (PGT-135) (antibody) here?
A: The IC50 (µg/mL), pseudovirus neutralization was over 50 µg/mL.

Q: What about the IC50, pseudovirus neutralization [2] of the same substance?
A: The IC50, pseudovirus neutralization was over 50 µg/mL.

Q: What about the IC50, pseudovirus neutralization [3] of the same substance?
A: The IC50, pseudovirus neutralization was over 50 µg/mL.

Q: What about the IC50, pseudovirus neutralization [4] of the same substance?
A: Its IC50, pseudovirus neutralization is over 50 µg/mL.

Q: What about the IC50, pseudovirus neutralization [5] of the same substance?
A: The IC50, pseudovirus neutralization was over 50 µg/mL.

Q: And the IC50 (µg/mL), pseudovirus neutralization [6]?
A: Its IC50 (µg/mL), pseudovirus neutralization is over 50 µg/mL.

Q: And the IC50 (µg/mL), pseudovirus neutralization [7]?
A: The IC50 (µg/mL), pseudovirus neutralization was over 50 µg/mL.

Q: What about the IC50 (µg/mL), pseudovirus neutralization [8] of the same substance?
A: Its IC50 (µg/mL), pseudovirus neutralization is 21.1 µg/mL.

Q: And the IC50, pseudovirus neutralization [9]?
A: The IC50, pseudovirus neutralization was 0.017 µg/mL.

Q: And the IC50, pseudovirus neutralization [10]?
A: Its IC50, pseudovirus neutralization is 0.104 µg/mL.

Q: And the IC50, pseudovirus neutralization [11]?
A: The IC50, pseudovirus neutralization was over 50 µg/mL.

Q: What about the Fold IC50 increase relative to wild-type (pseudovirus neutralization) [12] of the same substance?
A: Its Fold IC50 increase relative to wild-type (pseudovirus neutralization) is 0.1 fold.

Q: With 5345_I01 (PGT-137) (antibody) as the substance, how does the IC50 (µg/mL), pseudovirus neutralization [1] read?
A: The IC50 (µg/mL), pseudovirus neutralization was over 50 µg/mL.

Q: What about the IC50, pseudovirus neutralization [2] of the same substance?
A: The IC50, pseudovirus neutralization was 49.2 µg/mL.

Q: What about the IC50, pseudovirus neutralization [3] of the same substance?
A: The IC50, pseudovirus neutralization was over 50 µg/mL.

Q: What about the IC50, pseudovirus neutralization [4] of the same substance?
A: The IC50, pseudovirus neutralization was over 50 µg/mL.

Q: What about the IC50, pseudovirus neutralization [5] of the same substance?
A: The IC50, pseudovirus neutralization was over 50 µg/mL.

Q: What about the IC50 (µg/mL), pseudovirus neutralization [6] of the same substance?
A: The IC50 (µg/mL), pseudovirus neutralization was over 50 µg/mL.

Q: What about the IC50 (µg/mL), pseudovirus neutralization [7] of the same substance?
A: The IC50 (µg/mL), pseudovirus neutralization was over 50 µg/mL.

Q: What about the IC50 (µg/mL), pseudovirus neutralization [8] of the same substance?
A: The IC50 (µg/mL), pseudovirus neutralization was over 50 µg/mL.

Q: What about the IC50, pseudovirus neutralization [9] of the same substance?
A: The IC50, pseudovirus neutralization was 0.102 µg/mL.

Q: And the IC50, pseudovirus neutralization [10]?
A: The IC50, pseudovirus neutralization was 1.98 µg/mL.

Q: And the IC50, pseudovirus neutralization [11]?
A: The IC50, pseudovirus neutralization was over 50 µg/mL.

Q: Which results are given for PGT-141 (4964_G22; 4993_K13) (antibody)?
A: IC50, pseudovirus neutralization [13]: 1.66 µg/mL; IC50, pseudovirus neutralization [14]: > 50 µg/mL; IC50, pseudovirus neutralization [15]: 8.99 µg/mL; IC50 [16]: > 50 µg/mL

Q: PGT-142 (4995_E20) (antibody) was tested. Which IC50, pseudovirus neutralization [13] did it give?
A: Its IC50, pseudovirus neutralization is 0.155 µg/mL.

Q: What about the IC50, pseudovirus neutralization [14] of the same substance?
A: The IC50, pseudovirus neutralization was over 50 µg/mL.

Q: And the IC50, pseudovirus neutralization [15]?
A: The IC50, pseudovirus neutralization was 12.9 µg/mL.

Q: And the IC50 [16]?
A: Its IC50 is over 50 µg/mL.

Q: Which IC50, pseudovirus neutralization [13] does the source give for PGT-143 (4980_N08) (antibody) here?
A: Its IC50, pseudovirus neutralization is 0.277 µg/mL.

Q: What about the IC50, pseudovirus neutralization [14] of the same substance?
A: Its IC50, pseudovirus neutralization is over 50 µg/mL.

Q: And the IC50, pseudovirus neutralization [15]?
A: Its IC50, pseudovirus neutralization is 12.3 µg/mL.

Q: What about the IC50 [16] of the same substance?
A: The IC50 was over 50 µg/mL.

Q: PGT-144 (4970_K22) (antibody) was tested. Which IC50, pseudovirus neutralization [13] did it give?
A: Its IC50, pseudovirus neutralization is over 50 µg/mL.

Q: And the IC50, pseudovirus neutralization [14]?
A: Its IC50, pseudovirus neutralization is over 50 µg/mL.

Q: What about the IC50, pseudovirus neutralization [15] of the same substance?
A: The IC50, pseudovirus neutralization was 20.6 µg/mL.

Q: And the IC50 [16]?
A: The IC50 was over 50 µg/mL.

Q: How did the IC50, pseudovirus neutralization [13] turn out when PGT-145 (4995_P16) (antibody) was run?
A: Its IC50, pseudovirus neutralization is 0.111 µg/mL.

Q: What about the IC50, pseudovirus neutralization [14] of the same substance?
A: The IC50, pseudovirus neutralization was 10 µg/mL.

Q: And the IC50, pseudovirus neutralization [15]?
A: Its IC50, pseudovirus neutralization is 13.6 µg/mL.

Q: And the IC50 [16]?
A: Its IC50 is over 50 µg/mL.

Q: What does the source list for PGV04 (antibody)?
A: IC50 (µg/mL), pseudovirus neutralization [17]: 1.51 µg/mL; IC50 (µg/mL), pseudovirus neutralization [18]: 0.218 µg/mL

Q: Which IC50 (µg/mL), pseudovirus neutralization [19] does the source give for VRC01 (antibody) here?
A: Its IC50 (µg/mL), pseudovirus neutralization is 12.7 µg/mL.

Q: What about the IC50, single-round pseudovirus neutralization [20] of the same substance?
A: Its IC50, single-round pseudovirus neutralization is over 50 µg/mL.

Q: What about the IC50, single-round pseudovirus neutralization [21] of the same substance?
A: Its IC50, single-round pseudovirus neutralization is 13 µg/mL.

Q: What about the IC50, single-round pseudovirus neutralization [22] of the same substance?
A: The IC50, single-round pseudovirus neutralization was 0.077 µg/mL.

Q: What about the IC50, single-round pseudovirus neutralization [23] of the same substance?
A: The IC50, single-round pseudovirus neutralization was 0.125 µg/mL.

Q: What about the IC50 (µg/mL), pseudovirus neutralization [24] of the same substance?
A: The IC50 (µg/mL), pseudovirus neutralization was 0.252 µg/mL.

Q: And the IC50, pseudovirus neutralization [13]?
A: Its IC50, pseudovirus neutralization is 0.119 µg/mL.

Q: And the IC50, pseudovirus neutralization [14]?
A: Its IC50, pseudovirus neutralization is 0.192 µg/mL.

Q: And the IC50, pseudovirus neutralization [15]?
A: The IC50, pseudovirus neutralization was 2.86 µg/mL.

Q: And the IC50 [16]?
A: The IC50 was over 50 µg/mL.
